The test system of test [1] is unfolded protein response in 22Rv.1 cells. The test can be described thus: UPR modulation, Western blot / PCR in 22Rv.1 cells. In kind it is cell-based. As to the method:
(§1) Unless otherwise stated, stable transfection was carried out in 22Rv.1 or BPH-1 cells with 10 µg of plasmid DNA using FuGene 6™ (Roche Diagnostics Mannheim, Germany) Stably transfected 22Rv.1 cells were selected with 0.8 mg/ml while BPH-1 cell clones were selected with 1.2 mg/ml G418. LNCaP, PC3, DU145, PNT-2 and RWPE-1 cell clones were selected with 1 mg/ml G418. Specific downregulation of GRP78 expression was achieved by transfecting siRNA-duplexes (GRP78∶5′-[…]-3′) twice in 72 h using HiPerfect™ (Qiagen Hilden, Germany). siRNA against GFP (5′-[…]-3′) was used as a control. Western blot analysis was performed as previously described.
(§2) Figure 3 The Bag-1 peptide modulates the UPR and sensitizes 22Rv.1 cells to ER-stress. A. UPR modulation upon Bag-1 peptide overexpression. Pooled clones of 22Rv.1 cells transfected with pcDNA3.1-HA-Bag-1 68 amino acid peptide or an empty expression vector were treated with 300 nM thapsigargin (TG) for the indicated time points. Cells were lysed and subjected to Western blot analysis using the indicated antibodies or phospho-specific antibodies. B. The Bag-1 peptide sensitizes 22Rv.1 cells to ER-stress induced apoptosis. Pooled clones of 22Rv.1 transfected with the Bag-1 peptide or the empty expression vector were treated with thapsigargin (TG) or glucose-starved (GS) for 24 h. The cells were lysed and subjected to Western blot analysis using anti-PARP and caspase 4 specific antibodies. Anti-HA antibody was used to detect the HA-Bag-1 peptide. […] C. […] Pooled clones of 22Rv.1 expressing HA-tagged Bag-1 peptide or an empty expression vector were transfected with GRP78/BiP siRNA or control GFP siRNA. The cells were lysed and Western blot was carried out with anti-PARP, anti-GRP78 and anti-HA antibodies. β-actin antibody was used to determine the level of protein loaded on the gel.
A. Real time PCR analysis of ATF6 gene expression following thapsigargin (300 nM) treatment for the indicated time points in 22Rv.1 cell clones with empty vector control (open bars) and peptide-expressing clones (filled bars). The RNA was extracted using PeqGold RNA pure (PeqLab, Germany) kit according to manufacturer’s instructions. For gene expression analysis, the following primers were used: Rib36 forward 5′-[…]-3′; reverse 5′-CCGGATATGAGGCAGCAG-3′; ATF6 forward 5′-[…]-3′; reverse 5′-[…]-3′. Each bar represents the mean of three independent experiments ± SEM. *p<0.05. B. Western blot analysis of ATF6 and its cleaved product (cATF6) in LNCaP cells stably expressing the empty vector control or the Bag-1 peptide. Anti-ATF6 specific antibody and an anti-HA specific antibody were used for the Western blot. β-actin antibody was used to determine equal loading control. Mouse monoclonal anti-ATF6 antibody was purchased from Imgenex (Hamburg, Germany), mouse monoclonal anti-HA antibody (HA.11 clone 16B12) was purchased from Covance (Munich, Germany) and anti-β-actin antibody was purchased from Abcam (Cambridge, UK). (TIF) Click here for additional data file.
Supplementary file pone.0045690.s004.tif: Figure S4 The Bag-1 peptide induces GCN2 phosphorylation. 22Rv.1 cells stably expressing the empty vector control or the Bag-1 peptide were treated with thapsigargin (300 nM) for 16 h and subjected to Western blot analysis using anti-phospho-GCN2, GCN2 and HA-specific antibodies. The filters used in this experiment for the GCN2 signals are the same filters used in Figure 3A. The HA-Bag-1 peptide and the β-actin signals are therefore identical to that of Figure 3A. (TIF) Click here for additional data file.
(In western blotting, separated proteins are transferred to a membrane and probed.)

Test [2] relates to 22Rv.1 cells. Put plainly: ER-stress induced apoptosis markers, Western blot in 22Rv.1 cells. In kind it is cell-based. As to the method:
as §1, §2
Supplementary file pone.0045690.s005.tif: Figure S5 Knock-down of CHOP impairs the Bag-1 peptide-mediated increase in apoptosis. The action of the Bag-1 peptide is dependent on CHOP. Pooled clones of 22Rv.1 expressing an empty expression vector (lane 1 to 4) or an HA-tagged Bag-1 peptide (lane 5 to 8) were transfected with control GFP siRNA (lane 1–2 and 5–6) or CHOP siRNA (lane 3–4 and 7–8). After treatment with 300 nM thapsigargin (TG) for 24 h, cells were lysed and Western blot was carried out with anti-PARP, anti-CHOP and anti-HA antibodies. β-actin antibody was used to determine the level of protein loaded on the gel. (TIF) Click here for additional data file.
Supplementary file pone.0045690.s006.tif: Figure S6 Overexpression of the Bag-1 peptide increases Capase-7 cleavage and JNK expression. 22Rv.1 cells stably transfected with an empty vector control (lane 1–2) or a plasmid encoding an HA-tagged Bag-1 peptide (lane 3–4) were treated with 300 nM thapsigargin (TG) for 24 h and harvested for Western blot anaysis. Specific antibodies against JNK (Cell Signaling, Frankfurt am Main, Germany), cleaved Caspase-7 (Cell Signaling, Frankfurt am Main, Germany), HA (HAA.11 clone 16B12, Covance, Munich, Germany) or β-actin (Sigma, Steinheim, Germany) were used in the experiment. (TIF) Click here for additional data file.

[3] abbreviates: Bag-1 peptide expressing 22Rv.1 cells, thapsigargin 300 nM, 16 h.
The mark [4] stands for this setting: stable Bag-1 peptide expression, 22Rv.1, thapsigargin 300 nM.
Setting [5] is: stable Bag-1 peptide expression, 22Rv.1, thapsigargin 300 nM, vs vector control.

B1: Bag-1 peptide: internal sequence of 68 amino acids of Bag-1 (Bag1-L 202–269), HA-tagged, expressed from pcDNA3 (peptide)
chain: TPLSALGIQDGCRVMLIGKKNSPQEEVELKKLKHLEKSVEKIADQLEELNKELTGIQQGFLPKDLQAE
modifications: also: HA tag, end not given here
Regarding B1, the CHOP expression result in test [1] (Bag-1 peptide expressing 22Rv.1 cells, thapsigargin 300 nM) was “increased expression of the pro-apoptotic factor CHOP”. Moreover, in test [1] (setting [3]), the GCN2 entry was “upregulated in the peptide expressing cells” and the GCN2 phosphorylation result is given as “enhanced phosphorylation of GCN2”. In addition, in test [1] (setting [4]), the ATF4 activation result was “activation of the downstream target ATF4”, the eIF2α phosphorylation entry is “increase in eIF2α phosphorylation” and the “thapsigargin-induced expression of GRP78/BiP” value is “inhibition of the thapsigargin-induced expression of GRP78/BiP”. In addition, in test [1] (setting [5]), the “cleaved ATF6” value was “significant reduction of cleaved ATF6”; the “phosphorylation of PERK and IRE1” value was “reduced ER stress-induced phosphorylation of PERK and IRE1”. Besides, in test [2] (22Rv.1 cells expressing Bag-1 peptide vs vector, no ER stress), the “PARP cleavage, GFP siRNA control, no ER stress” value is recorded as “increase in the PARP cleavage even in the absence of ER stress”. Further, the “PARP cleavage, GRP78/BiP knock-down” value in test [2] (22Rv.1 cells transfected with GRP78/BiP siRNA, Bag-1 peptide vs vector) is “no difference in the cleavage pattern was further observed”. Further, the “caspase 4 and PARP cleavage, no ER stress” value in test [2] (22Rv.1 cells, no stressor, vs vector control) was “both caspase 4 and PARP cleavage was increased”. Further, the “CHOP expression and PARP cleavage” value in test [2] (22Rv.1 cells, thapsigargin 300 nM 24 h, Bag-1 peptide vs vector control) was “further enhanced in the cells expressing the Bag-1 peptide”. Moreover, the “JNK expression and caspase 7 cleavage” value in test [2] (22Rv.1 cells, thapsigargin 300 nM 24 h, vs vector control) is “enhanced expression of JNK and caspase 7 cleavage”. In test [2] (22Rv.1 cells, thapsigargin 300 nM 24 h, both vector and peptide cell lines), the “PARP cleavage after CHOP siRNA knockdown” value is listed as “PARP cleavage was reduced in both cells line”. The “caspase 4 expression and PARP cleavage, with ER stress” value in test [2] (22Rv.1 cells, thapsigargin or glucose starvation 24 h, vs vector control) was “a tremendous increase in caspase 4 expression and PARP cleavage”.

Values taken from publication PMC3462190, “A Peptidic Unconjugated GRP78/BiP Ligand Modulates the Unfolded Protein Response and Induces Prostate Cancer Cell Death” (PLoS ONE, 2012).
